The chains are these.
B1: D-alanyl carrier protein (Streptococcus thermophilus (strain ATCC BAA-250 / LMG 18311)), Q5M4V3 (parent)
chain: MDVKAEVIEIIDELFMEDVSDMMDEDLFDAGVLDSMGTVELIVELESRFDIRVPVSEFGRDDWNTANKIVEGVTELRNA
partner: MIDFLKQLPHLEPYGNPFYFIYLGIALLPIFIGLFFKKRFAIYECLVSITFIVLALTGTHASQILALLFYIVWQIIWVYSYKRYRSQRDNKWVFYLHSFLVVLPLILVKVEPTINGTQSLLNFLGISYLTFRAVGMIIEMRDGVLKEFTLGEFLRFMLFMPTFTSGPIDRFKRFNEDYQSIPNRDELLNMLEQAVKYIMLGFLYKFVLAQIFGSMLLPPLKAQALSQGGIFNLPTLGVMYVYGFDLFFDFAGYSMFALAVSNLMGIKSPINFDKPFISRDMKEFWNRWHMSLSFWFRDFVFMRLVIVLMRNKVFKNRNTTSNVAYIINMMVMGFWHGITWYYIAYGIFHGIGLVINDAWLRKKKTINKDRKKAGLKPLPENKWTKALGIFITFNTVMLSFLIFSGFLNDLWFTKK
B2: Teichoic acid D-alanyltransferase (Streptococcus thermophilus (strain ATCC BAA-250 / LMG 18311)), Q5M4V4 (parent)
chain: B1 partner
partner: B1 chain

The variants in the first assay derive from B1. As to conditions: with dltb_strt2 dltB, Q5M4V4.
Consider S35A, for which the “effect of a mutation on the interaction” value was “decreasing interaction”.
Turning to V39D, the “effect of a mutation on the interaction” value was “decreasing interaction strength”.

Variants of B1 are the subject of a further assay. As to conditions: with dltb_strt2 dltB.
Take V39D: the “effect of a mutation on the interaction” value is recorded as “decreasing interaction”.
Regarding V39R, the “effect of a mutation on the interaction” value is listed as “decreasing interaction”.

In a further assay the parent is B2. As to conditions: with dltc_strt2 dltC.
As for V305D;I306D, the “effect of a mutation on the interaction” value is recorded as “disrupting interaction”.
In the case of V305D, the “effect of a mutation on the interaction” value was “decreasing interaction”.

The variants in a further assay derive from B2. As to conditions: with dltc_strt2 dltC, Q5M4V3.
Regarding V305D;I306D, the “effect of a mutation on the interaction” value is on record as “disrupting interaction strength”.
Take V305R: the “effect of a mutation on the interaction” value is reported as “decreasing interaction strength”.
